Data on one protein can be found in publication PMC6194269, “Structural and functional characterization of hMEX‐3C Ring finger domain as an E3 ubiquitin ligase” (Protein Science : A Publication of the Protein Society, 2018).

This data set deals with the molecule itself. Kind of data set: SEC; GST fusion digested by TEV protease and loaded on an S75 column; molecular weight calculated from elution volume.

B1: Ring finger domain of hMEX-3C (domain or fragment, human, UniProt Q5U5Q3 603-659, looked up)
chain: RRKHDCVICFENEVIAALVPCGHNLFCMECANKICEKRTPSCPVCQTAVTQAIQIHS
notes: two zinc ions per monomer; also called hMEX-3C Ring finger domain; hMEX-3C Ring homodimer; source: E. coli BL21 (DE3), purified (GST column, Superdex 75); GST fusion digested by TEV protease
Take B1: the stoichiometry N (in general, the number of molecules, sites or subunits per partner or assembly) was 2.
